This note sets out measurements from PMC8632972.

Test [1] deals with CPE tagged with cYFP (UniProt P15087). Nature of the test: BiFC quantified by flow cytometry. To be noted: n = 5 independent experiments; parent: est. 100; read off a plot.
For test [2], the target named is NPY tagged with cYFP (UniProt P07808). Briefly: BiFC quantified by flow cytometry. To be noted: n = 5 independent experiments; parent: est. 100; read off a plot. For orientation: Flow cytometry measures light scatter and fluorescence of single cells or particles in a stream.
The target in test [3] is SCG5 tagged with cYFP (UniProt P27682). Nature of the test: BiFC quantified by flow cytometry. The note with it: n = 5 independent experiments; parent: est. 100; read off a plot.
Test [4] addresses proinsulin tagged with C-terminal segment of YFP (cYFP) (UniProt P01322). Briefly: BiFC quantified by flow cytometry. To be noted: n = 5 independent experiments; parent: est. 100; read off a plot.
Test [5] deals with SEC24A tagged with Myc. Briefly: PLA. The note with it: n = 3 independent experiments, n = 8 independent images quantified; parent: est. 4.5; read off a plot.
The target in test [6] is SCG5 tagged with cYFP (UniProt P27682). Briefly: PLA. The note with it: n = 4 independent experiments, n = 8 independent images quantified; parent: est. 100; read off a plot.

UniProt P01322, sequence (P01322 25-110): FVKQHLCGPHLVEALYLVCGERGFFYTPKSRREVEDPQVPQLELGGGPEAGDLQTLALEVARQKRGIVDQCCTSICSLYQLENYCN
UniProt P27682, sequence (P27682 25-210): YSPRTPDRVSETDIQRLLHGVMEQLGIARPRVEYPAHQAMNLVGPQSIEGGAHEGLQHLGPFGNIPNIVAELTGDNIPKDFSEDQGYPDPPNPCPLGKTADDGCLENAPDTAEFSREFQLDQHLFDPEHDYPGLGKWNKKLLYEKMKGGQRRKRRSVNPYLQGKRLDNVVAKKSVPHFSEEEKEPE
UniProt P15087, sequence (P15087 28-476): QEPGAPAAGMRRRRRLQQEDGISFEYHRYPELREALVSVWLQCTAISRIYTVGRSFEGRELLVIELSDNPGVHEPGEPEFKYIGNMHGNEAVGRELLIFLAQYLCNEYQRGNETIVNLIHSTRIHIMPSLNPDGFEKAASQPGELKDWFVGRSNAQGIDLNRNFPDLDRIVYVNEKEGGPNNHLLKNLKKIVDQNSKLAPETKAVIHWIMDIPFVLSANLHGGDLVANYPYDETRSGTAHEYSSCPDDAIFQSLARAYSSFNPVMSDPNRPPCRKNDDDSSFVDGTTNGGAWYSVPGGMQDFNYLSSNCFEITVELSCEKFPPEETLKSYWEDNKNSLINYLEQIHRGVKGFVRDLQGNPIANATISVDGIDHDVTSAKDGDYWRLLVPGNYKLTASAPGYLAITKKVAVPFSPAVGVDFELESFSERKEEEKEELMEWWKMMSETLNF

Take “WFS1 tagged with N-terminal segment of YFP (nYFP) E830A”: the percent of parent in test [1] turned out to be 2%; in test [2] it was 3%; in test [3], 8%; in test [4] it was 23%.

“WFS1 tagged with N-terminal segment of YFP (nYFP) P724L”: the percent of parent in test [1] was found to be 71%; in test [2] it was 49%; in test [3], 54%; in test [4] it was 61%.

Consider HA-tagged WFS1 E169K, for which the response (puncta (>1µm2) per cell) in test [5] turned out to be 0.13.

As for HA-tagged WFS1 E809K, the response (puncta (>1µm2) per cell) in test [6] was found to be 56.

Take “WFS1 tagged with N-terminal segment of YFP (nYFP) E809K”: the percent of parent was 46% in test [1], 41% in test [2], 71% in test [3] and 70% in test [4].

As to HA-tagged WFS1 E158K, the response (puncta (>1µm2) per cell) in test [5] turned out to be 0.13.

Take HA-tagged WFS1 P724L: the response (puncta (>1µm2) per cell) in test [6] was 55.

Turning to HA-tagged WFS1 E830A, the response (puncta (>1µm2) per cell) in test [6] came to 7.

Take “WFS1 tagged with N-terminal segment of YFP (nYFP) G695V”: the percent of parent in test [1] came out at 41%; in test [2], 33%; in test [3], 56%; in test [4] it was 42%.

With HA-tagged WFS1 G695V, the response (puncta (>1µm2) per cell) in test [6] amounted to 35.
